Results as given in patent US20140227292A1 (PROTHENA BIOSCIENCES, published 2014).

T1: human MCAM (melanoma cell adhesion molecule), expressed on transfected CHO cells (human, UniProt P43121 24-646)
T1 construct: also called hMCAM; CD146
T1 chain: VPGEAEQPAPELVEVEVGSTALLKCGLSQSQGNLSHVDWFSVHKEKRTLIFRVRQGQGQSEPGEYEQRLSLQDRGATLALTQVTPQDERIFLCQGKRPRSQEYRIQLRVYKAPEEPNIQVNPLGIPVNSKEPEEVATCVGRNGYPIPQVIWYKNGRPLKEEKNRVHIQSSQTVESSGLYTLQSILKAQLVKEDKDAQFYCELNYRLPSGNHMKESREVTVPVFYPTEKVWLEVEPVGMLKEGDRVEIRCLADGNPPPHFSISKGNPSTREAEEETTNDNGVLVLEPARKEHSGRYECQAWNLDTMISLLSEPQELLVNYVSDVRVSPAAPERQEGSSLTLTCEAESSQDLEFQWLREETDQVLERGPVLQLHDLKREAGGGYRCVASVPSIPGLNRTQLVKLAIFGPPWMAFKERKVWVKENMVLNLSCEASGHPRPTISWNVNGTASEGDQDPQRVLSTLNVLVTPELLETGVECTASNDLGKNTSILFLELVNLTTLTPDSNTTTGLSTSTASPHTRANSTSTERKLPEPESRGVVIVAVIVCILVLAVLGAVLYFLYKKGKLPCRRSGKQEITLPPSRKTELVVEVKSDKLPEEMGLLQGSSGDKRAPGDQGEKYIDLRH


Tests used:
[1] = target: T1, human MCAM (melanoma cell adhesion …); assay: blocking assay of the re-expressed antibodies (Table 7 'Blocking IC50'; laminin/FACS assay of paragraph 438): % inhibition of laminin 411 binding to hMCAM-expressing CHO cells
Procedure: Following incubation for 30-45 minutes, the cells were washed and anti-laminin conjugated to AF650 (NovusBio) was added to detect the bound laminin. The cells were run on a flow cytometer to measure the laminin binding signal.

[2] = target: recombinant human laminin 411 (Biolamina) (human, UniProt Q16363 25-1823; P07942 22-1786; P11047 34-1609); assay: SPR, Biacore T200, steady state, Fc-tagged MCAM IgG1-2A captured by anti-Fc, laminin as analyte

| IC50 (read off the curve) [1] [µg/mL] | Kd [2] [nM] | Binder |
| --- | --- | --- |
| ~0.4 | – | chimeric 1749 (antibody, V domains shown) VH: DVKLVESGGDLVKPGGSLKLSCAASGFTFSSYIMSWVRQTPEKRLEWVATISSGGSSTYYPDSVKGRFTISRDNAKNTLYLQMSSLKSEDTAMYYCTRDDDYDVKVFAYWGQGTLVTVSA VL: DIVMSQSPSSLAVSAGEKVTMNCKSSRSLLNSRIRKNYLAWYQQKPGQSPKLLIYWASTRESGVPDRFTGSGSGTDFTLTISSVQAEDLAVYYCKQSYNLLTFGAGTKLELK |
| ~0.5 | – | chimeric 2107 (antibody, V domains shown) VH: QVQLKESGPGLVQSSQTLSLTCTVSGFSLTSNGVSWVRQPPGKGLEWIAAISSGGSTYYNSAFKSRLSISRNTSKSQVLLKMNSLQTEDTGMYFCARHRPFYFDYWGQGVMVTVSS VL: DIQVTQSPSLLSASVGDRVTLNCKGSQNIYKSLAWFRLKRGEAPKLLIYDANSLQTGIPSRFSGSGSGTDFTLTITSLQPEDVATYFCQQYYSGYTFGAGTKLELK |
| – | 66 | Recombinant human Fc-tagged MCAM IgG1-2A (human MCAM domains 1 and 2, amino acids 19-242) (Fc fusion, also called human MCAM IgG1-2A; MCAM Fc domains 1 and 2; not shown: human Fc tag) PRVAGVPGEAEQPAPELVEVEVGSTALLKCGLSQSQGNLSHVDWFSVHKEKRTLIFRVRQGQGQSEPGEYEQRLSLQDRGATLALTQVTPQDERIFLCQGKRPRSQEYRIQLRVYKAPEEPNIQVNPLGIPVNSKEPEEVATCVGRNGYPIPQVIWYKNGRPLKEEKNRVHIQSSQTVESSGLYTLQSILKAQLVKEDKDAQFYCELNYRLPSGNHMKESREVT |
| ~0.8 | – | h2107_VH2 + h2107_VL2 (antibody, V domains shown, also called h2107VH2VL2; VH2VL2) VH: QVTLKESGPVLVKPTETLTLTCTVSGFSLTSNGVSWVRQPPGKALEWIAAISSGGSTYYNSAFKSRLSISRDTSKSQVVLTMTNMDPVDTATYYCARHRPFYFDYWGQGTLVTVSS VL: DIQMTQSPSSLSASVGDRVTITCKGSQNIYKSLAWFQLKPGKVPKLLIYDANSLQTGIPSRFSGSGSGTDFTLTISSLQPEDVATYYCQQYYSGYTFGGGTKVEIK |
